Measured values reported in paper PMC314469, “Protein Interaction Networks by Proteome Peptide Scanning” (PLoS Biology, 2004).

T1: Myo5 SH3 (MYO5_YEAST), Q04439
T1 chain: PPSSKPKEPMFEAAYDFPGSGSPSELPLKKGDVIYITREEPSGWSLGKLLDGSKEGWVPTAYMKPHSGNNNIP

T2: Boi2 SH3 (BOI2_YEAST), P39969
T2 chain: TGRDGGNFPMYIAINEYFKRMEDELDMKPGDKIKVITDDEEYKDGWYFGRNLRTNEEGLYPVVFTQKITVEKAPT

T3: Yfr024 SH3 (LSB3_YEAST), P43603
T3 chain: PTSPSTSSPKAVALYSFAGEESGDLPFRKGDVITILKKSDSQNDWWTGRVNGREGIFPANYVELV

T4: Rvs167 SH3 (RV167_YEAST), P39743
T4 chain: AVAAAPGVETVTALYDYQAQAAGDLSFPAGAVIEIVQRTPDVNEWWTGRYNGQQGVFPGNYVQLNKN

T5: Boi1 SH3 (BOI1_YEAST), P38041
T5 chain: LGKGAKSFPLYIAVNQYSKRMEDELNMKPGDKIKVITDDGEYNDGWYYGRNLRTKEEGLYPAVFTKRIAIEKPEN

T6: Yhr016c SH3 (YSC84_YEAST), P32793
T6 chain: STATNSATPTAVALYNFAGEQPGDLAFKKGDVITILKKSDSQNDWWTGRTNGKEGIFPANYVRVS


What was measured:
Experiment in all cases: SPOT array
[1] = target: Sho1 SH3 (SHO1_YEAST), P40073
[2] = target: T1, Myo5 SH3 (MYO5_YEAST), Q04439
[3] = target: T2, Boi2 SH3 (BOI2_YEAST), P39969
[4] = target: T3, Yfr024 SH3 (LSB3_YEAST), P43603
[5] = target: T4, Rvs167 SH3 (RV167_YEAST), P39743
[6] = target: T5, Boi1 SH3 (BOI1_YEAST), P38041
[7] = target: T6, Yhr016c SH3 (YSC84_YEAST), P32793

Sequence of Sho1 SH3 (SHO1_YEAST), P40073 (P40073 295-366): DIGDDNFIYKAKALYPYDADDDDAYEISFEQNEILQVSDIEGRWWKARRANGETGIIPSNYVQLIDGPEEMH

Binder | normalised SPOT signal, Boehringer light units (BLU); mean over the file's lines of this peptide [1] | normalised SPOT signal, Boehringer light units (BLU); mean over the file's lines of this peptide [2] | normalised SPOT signal, Boehringer light units (BLU); mean over the file's lines of this peptide [3] | normalised SPOT signal, Boehringer light units (BLU); mean over the file's lines of this peptide [4] | normalised SPOT signal, Boehringer light units (BLU); mean over the file's lines of this peptide [5] | normalised SPOT signal, Boehringer light units (BLU); mean over the file's lines of this peptide [6] | normalised SPOT signal, Boehringer light units (BLU); mean over the file's lines of this peptide [7]
KLPKKFPPPTPLLE [YER172C 1312-1325] | 69.2 | 19700 | 0 | 39.9 | 10.1 | 821 | 6
KLVLRNVPILPILN [YBL008W 776-789] | 24.2 | 303 | 17.3 | 1510 | 383 | 41.9 | 74.5
KLYYRHRPQKPVRT [YOL164W 144-157] | 126 | 916 | 27.1 | 756 | 153 | 599 | 86.9
KMAKKLLPYKPHNS [YBR270C 208-221] | 522 | 708 | 9.1 | 182 | 37.6 | 156 | 37.4
KMSAKNTPKHPVDI [YPL082C 209-222] | 102 | 307 | 42.3 | 978 | 301 | 1220 | 332
KNIIKYVPWGPPLE [YLR142W 425-438] | 33.3 | 164 | 13.9 | 1.3 | 16.2 | 0 | 26.6
KNILKVSPVLPSIL [YMR247C 301-314] | 57.8 | 118 | 0.8 | 0 | 59.5 | 304 | 10.1
KNLKKYDPEDPNRR [YPL093W 383-396] | 76.6 | 207 | 0 | 45.8 | 121 | 656 | 71.3
KNLLREIPQVPAFQ [YLR077W 141-154] | 84.8 | 104 | 6.5 | 1080 | 2030 | 196 | 142
KNPTKSPPPPPSPS [YLR337C 698-711] | 0 | 27800 | 16.7 | 74.8 | 41 | 36.2 | 11.2
KPAGRPIPPAPTHY [YGR058W 101-114] | 115 | 189 | 0 | 4480 | 2260 | 90.4 | 2860
KQAKRAPPSSPYVV [YDR406W 496-509] | 127 | 295 | 2.9 | 152 | 19.4 | 470 | 20.9
KQKKKPTPTRPYNY [YKL089W 339-352] | 97.1 | 516 | 26.3 | 680 | 31.6 | 33.6 | 44.3
